Earlier results as cited in paper PMC8314067.
Where two headings read alike, the source gives them in different places.

Key:
[1] = target: type II receptor complex (IL-4Rα/IL-13Rα1) (Homo sapiens) (UniProt P24394)
[2] = target: type II receptor complex (IL-4Rα/IL-13Rα1) (Homo sapiens) (UniProt P24394); remark: listed apart in the source
[3] = target: type I receptor complex (IL-4Rα/γc) (Homo sapiens) (UniProt P24394)

Kd [1]	Kd [2]	Kd [3]	Substance
20 nM			IL-13 (from UniProt P35225)
	487 nM	559 nM	IL-4 (from UniProt P05112)
